Where “and” joins values, the source holds several entries; their conditions need not be identical. Equal entries are not always repeated.
Tests used:
YqhD (purified) = conditions: furfural reductase study, Miller et al (2009); read-out: Km value for NADPH; cited from earlier work
[1] = tested on: YqhD double mutant D99Q N147H; conditions: versus parent YqhD, Li et al, 2008; cited from earlier work
YqhD single mutant Q202A = conditions: versus parent YqhD, Li et al, 2008; cited from earlier work
[2] = substrate: CC(=O)C=O; experiment: purified protein, by the assay type; conditions: other: methylglyoxal 1.3-30 mM, 0.2 mM NADPH, pH 7.5, 37° C.
[3] = substrate: NC(=O)C1=CN([C@@H]2O[C@H](COP(=O)(O)OP(=O)(O)OC[C@H]3O[C@@H](n4cnc5c(N)ncnc54)[C@H](OP(=O)(O)O)[C@@H]3O)[C@@H](O)[C@H]2O)C=CC1; experiment: purified protein, by the assay type; conditions: other: NADPH 6-300 μM, 10 mM methylglyoxal, pH 7.5, 37° C.
Procedure: Kinetic constants (Km, kcat and kcat/Km) for the four purified enzymes (yqhD, yqhD*(G149E), yqhD*(G149S) and yqhD*(G149S A286T)) toward methylglyoxal were determined using the activity assay previously described. In this case the reaction was started by addition of the purified enzyme. Nine NADPH concentrations between 6 μM and 300 μM were analysed for each enzyme. For all kinetics, initial velocity was determined in triplicate for all co-factor concentrations.

[4] = Methylglyoxal reductase activity assay, kinetics of purified YqhD enzymes toward methylglyoxal; format: biochemical, E. coli; conditions: for Kinetic parameters (Km, kcat, kcat/Km) compared to the native protein / Specific activity compared to that of YqhD: in words
Procedure: (§1) Methylglyoxal reductase activity was assayed by measuring the initial rate of NADPH oxidation with a spectrophotometer at a wavelength of 340 nm and at a constant temperature of 37° C. The reaction mixture using methylglyoxal as substrate was carried out in 20 mM Hepes pH 7.5, 0.1 mM Zinc sulphate, 0.2 mM NADPH, 0.6 μg of purified enzyme in a final volume of 1 ml. The reaction mixture was incubated for 5 min at 37° C. and then the reaction was initiated by the addition of the substrate methylglyoxal at a final concentration of 10 mM. Control assay (blank), lacking the substrate was run in parallel and the value measured for the control was subtracted to the value measured for the assay to take into account non-specific oxidation of NADPH.
(§2) One unit of enzyme activity was defined as the amount of enzyme that consumed 1 μmol substrate per minute under the conditions of the assay. Specific enzyme activity was expressed as units per mg of protein.
(§3) Kinetic constants (Km, kcat and kcat/Km) for the four purified enzymes (yqhD, yqhD*(G149E), yqhD*(G149S) and yqhD*(G149S A286T)) toward methylglyoxal were determined using the activity assay previously described. In this case the reaction was started by addition of the purified enzyme. Seven methylglyoxal concentrations between 1.3 mM and 30 mM were analysed for each enzyme. For all kinetics, initial velocity was determined in triplicate for all substrate concentrations.
Kinetic constants (Km and Vmax) of each protein were determined with the module enzyme kinetics from the software Sigma Plot (Systat Software Inc, San Jose, Calif.). […] The different kinetic parameters of four YqhD enzymes were compiled in Table 6.

[5] = Methylglyoxal reductase activity assay, kinetics of purified YqhD enzymes toward co-factor NADPH; format: biochemical, E. coli
Procedure: as §1, §2
as §3, with “Nine NADPH” for “Seven methylglyoxal”, “6 μM” for “1.3 mM”, “300 μM” for “30 mM”, “co-factor” for “substrate”
Kinetic constants (Km and Vmax) of each protein were determined with the module enzyme kinetics from the software Sigma Plot (Systat Software Inc, San Jose, Calif.). […] The different kinetic parameters of four YqhD enzymes were compiled in Table 7.

[6] = Inhibition of the YqhD enzymes by NADP+ (competitive inhibition model); format: biochemical, E. coli; conditions: NADP+ inhibition experiment, 20 mM methylglyoxal
Procedure: as §1
The NADP+ inhibition constant for three purified enzymes (yqhD, yqhD*(G149E) and yqhD*(G149S A286T)) were determined in the conditions described for the activity assay, excepted for the concentration of methylglyoxal that was increased to 20 mM. Enzyme kinetics with regards to NADPH were realised with increasing concentration of NADPH between 50 and 200 μM. Five concentrations of the inhibitor NADP+ were used (0-0.05-0.1-0.2-0.5 mM) and the kinetics were recorded for each condition of inhibition. The NADP+ inhibition constant (Ki) of each protein was determined with the module enzyme kinetic from the software Sigma Plot (Systat Software Inc, San Jose, Calif.). A model of competitive inhibition was fitted by the software.

Molecule	Km (YqhD (purified))	affinity (Km) for 3-HPA [1]	catalytic efficiency (Kcat/Km) for 3-HPA [1]	affinity (Km) for 3-HPA (YqhD single mutant Q202A)	catalytic efficiency (Kcat/Km) for 3-HPA (YqhD single mutant Q202A)	Km [2]	kcat [2]	kcat/Km [2]	Km [3]	kcat [3]	kcat/Km [3]	Specific activity [4]	Specific activity as share of the specific activity of YqhD [4]	Kinetic parameters (Km, kcat, kcat/Km) compared to the native protein [4]	Specific activity [5]	Specific activity [6]	Specific activity compared to that of YqhD [4]
NC(=O)C1=CN([C@@H]2O[C@H](COP(=O)(O)OP(=O)(O)OC[C@H]3O[C@@H](n4cnc5c(N)ncnc54)[C@H](OP(=O)(O)O)[C@@H]3O)[C@@H](O)[C@H]2O)C=CC1 [NADPH]	8 µM	–	–	–	–	–	–	–	–	–	–	–	–	–	–	–	–
O=CCCO [3-HPA, 3-hydroxypropionaldehyde]	–	improved affinity (lower Km)	improved catalytic efficiency	improved affinity (lower Km)	improved catalytic efficiency	–	–	–	–	–	–	–	–	–	–	–	–
E. coli YqhD variant YqhD*(G149S A286T) (Escherichia coli K-12; A286T/G149S) (protein) MNNFNLHTPTRILFGKGAIAGLREQIPHDARVLITYGGGSVKKTGVLDQVLDALKGMDVLEFGGIEPNPAYETLMNAVKLVREQKVTFLLAVGGGSVLDGTKFIAAAANYPENIDPWHILQTGGKEIKSAIPMGCVLTLPATGSESNASAVISRKTTGDKQAFHSAHVQPVFAVLDPVYTYTLPPRQVANGVVDAFVHTVEQYVTKPVDAKIQDRFAEGILLTLIEDGPKALKEPENYDVRANVMWAATQALNGLIGAGVPQDWATHMLGHELTAMHGLDHAQTLTIVLPALWNEKRDTKRAKLLQYAERVWNITEGSDDERIDAAIAATRNFFEQLGVPTHLSDYGLDGSSIPALLKKLEEHGMTQLGENHDITLDVSRRIYEAAR	–	–	–	–	–	3280 ± 380 µM	1.89 ± 0.07 s⁻¹	577 ± 88 M⁻¹ s⁻¹	20 ± 2.2 µM	2.2 ± 0.1 s⁻¹	1.22 E+05 M−1s−1 and 1.13E+05 ± 1.3E+04 M−1s−1	2.69 ± 0.10 µmol/min/mg	69%	identical to the native protein	3.17 ± 0.02 µmol/min/mg	5.25 ± 0.183 µmol/min/mg	–
E. coli YqhD variant YqhD*(G149S) (Escherichia coli K-12; G149S) (protein) MNNFNLHTPTRILFGKGAIAGLREQIPHDARVLITYGGGSVKKTGVLDQVLDALKGMDVLEFGGIEPNPAYETLMNAVKLVREQKVTFLLAVGGGSVLDGTKFIAAAANYPENIDPWHILQTGGKEIKSAIPMGCVLTLPATGSESNASAVISRKTTGDKQAFHSAHVQPVFAVLDPVYTYTLPPRQVANGVVDAFVHTVEQYVTKPVDAKIQDRFAEGILLTLIEDGPKALKEPENYDVRANVMWAATQALNGLIGAGVPQDWATHMLGHELTAMHGLDHAQTLAIVLPALWNEKRDTKRAKLLQYAERVWNITEGSDDERIDAAIAATRNFFEQLGVPTHLSDYGLDGSSIPALLKKLEEHGMTQLGENHDITLDVSRRIYEAAR	–	–	–	–	–	3370 ± 340 µM	2.67 ± 0.09 s⁻¹	792 ± 105 M⁻¹ s⁻¹	22 ± 3.7 µM	2.7 ± 0.1 s⁻¹	122000 ± 25000 M⁻¹ s⁻¹	3.80 ± 0.12 µmol/min/mg	–	identical to the native protein	3.78 ± 0.15 µmol/min/mg	–	similar
Escherichia coli MG1655 YqhD, native (wild type), SEQ ID NO: 56 (Escherichia coli K-12) (protein) MNNFNLHTPTRILFGKGAIAGLREQIPHDARVLITYGGGSVKKTGVLDQVLDALKGMDVLEFGGIEPNPAYETLMNAVKLVREQKVTFLLAVGGGSVLDGTKFIAAAANYPENIDPWHILQTGGKEIKSAIPMGCVLTLPATGSESNAGAVISRKTTGDKQAFHSAHVQPVFAVLDPVYTYTLPPRQVANGVVDAFVHTVEQYVTKPVDAKIQDRFAEGILLTLIEDGPKALKEPENYDVRANVMWAATQALNGLIGAGVPQDWATHMLGHELTAMHGLDHAQTLAIVLPALWNEKRDTKRAKLLQYAERVWNITEGSDDERIDAAIAATRNFFEQLGVPTHLSDYGLDGSSIPALLKKLEEHGMTQLGENHDITLDVSRRIYEAAR	–	–	–	–	–	4810 ± 410 µM	2.74 ± 0.08 s⁻¹	570 ± 65 M⁻¹ s⁻¹	32 ± 4.2 µM	2.1 ± 0.1 s⁻¹	66000 ± 11000 M⁻¹ s⁻¹	3.91 ± 0.11 µmol/min/mg	–	–	2.99 ± 0.1 µmol/min/mg	3.63 ± 0.284 µmol/min/mg	–
E. coli YqhD variant YqhD*(G149E) (Escherichia coli K-12; G149E) (protein) MNNFNLHTPTRILFGKGAIAGLREQIPHDARVLITYGGGSVKKTGVLDQVLDALKGMDVLEFGGIEPNPAYETLMNAVKLVREQKVTFLLAVGGGSVLDGTKFIAAAANYPENIDPWHILQTGGKEIKSAIPMGCVLTLPATGSESNAEAVISRKTTGDKQAFHSAHVQPVFAVLDPVYTYTLPPRQVANGVVDAFVHTVEQYVTKPVDAKIQDRFAEGILLTLIEDGPKALKEPENYDVRANVMWAATQALNGLIGAGVPQDWATHMLGHELTAMHGLDHAQTLAIVLPALWNEKRDTKRAKLLQYAERVWNITEGSDDERIDAAIAATRNFFEQLGVPTHLSDYGLDGSSIPALLKKLEEHGMTQLGENHDITLDVSRRIYEAAR	–	–	–	–	–	7800 ± 790 µM	5.38 ± 0.21 s⁻¹	689 ± 98 M⁻¹ s⁻¹	28 ± 1.8 µM	3.4 ± 0.1 s⁻¹	122000 ± 9800 M⁻¹ s⁻¹	7.65 ± 0.31 µmol/min/mg	–	–	4.86 ± 0.08 µmol/min/mg	5.53 ± 0.292 µmol/min/mg	almost doubled

From US8969053B2, “Mutant YqhD enzyme for the production of a biochemical by fermentation” (Metabolic Explorer, priority 2009, dated 2015)
